This is an account of results in patent US6818221B2, “Adjuvants and processes to induce a specific type of immune response” (Baylor Research Institute, priority 2000, dated 2004).

Assay [1] has as its system OVA-specific CD4+ T cells. In words: Cytokine production by antigen-specific T-helper cells in restimulated cultures (ELISA). In kind it is in vivo, mice. Conditions: CD4+ OT-2 system; culture supernatants after 72 hours OVA restimulation. The method, then:
(§1) Four days after injecting with OVA or OVA+LPS, 2.5×10^5 popliteal lymph node cells (footpad injections) or splenocytes (intraperitoneal injections) were plated in triplicate in 96-well flat bottomed plates (Costar, Cambridge, Mass.) in 200 μl of RPMI complete medium (GIBCO BRL, Grand Island, N.Y., US) supplemented with 5% fetal bovine serum (FBS), together with different concentrations (0-500 μg/mL of OVA, or OVA peptide (SIINFEKL, SEQ ID NO:1) (New England Peptide Incorporated, Fitchburg, Mass.). Proliferative responses were assessed after 72 hours of culture in a humidified atmosphere of 5% CO2 in air. Cultures were pulsed with 1.0 μCi [^3H] thymidine for 12 hours, and incorporation of the radionucleotide was measured by β-scintillation spectroscopy (Pulendran, B., et al. 1999. “Distinct dendritic cell subsets differentially regulate the class of immune response in vivo,” Proc Natl Acad Sci USA 96:1036-1041). For cytokine assays, aliquots of culture supernatants were removed after 72 hours, pooled, and assayed for the presence of IFNγ, IL-2, IL-4, IL-5, IL-10, and IL-13 by ELISA.
(§2) IFNγ, IL-2, IL-10, IL-4, IL-5, IL-6, IL-12, IL-13 and TNFα were quantified by ELISA kits from Pharmingen (San Diego, Calif.) using manufacturer's instructions dated 2000.
Cytokine production by antigen-specific T cells was measured by assaying the culture supernatants from the single cell suspensions of the draining lymph nodes described above for IL-2, IFNγ, IL-4, IL-10 and IL-5.
(In general: An ELISA detects its analyte on a solid surface through an enzyme-linked reagent.)

Assay [2] deals with OVA-specific CD4+ T cells. In words: IL-13 production by antigen-specific T cells in restimulated cultures (ELISA). In kind it is in vivo, B6.PL.THY1a (B6.PL) mice. Particulars: route not distinguished (intraperitoneally or subcutaneously). The method, then: B6.PL.THY1^a (B6.PL) mice reconstituted with OT-2 transgenic T cells were immunized with soluble OVA, E. coli LPS alone, P. gingivalis LPS alone, OVA+E. coli LPS, or OVA+P. gingivalis LPS, either subcutaneously in the footpad or intraperitoneally. Four days later, the draining popliteal lymph nodes (subcutaneous route), or spleens (intraperitoneal route) were removed, and single cell suspensions were restimulated with varying concentrations of OVA (0-500 μg/mL) for 72 hours, and pulsed with [^3H] for 12 hours. The cell populations were then assayed for IL-13 with ELISA. The data presented in FIG. 10 are representative of two independent experiments.
Four days after injecting with OVA or OVA+LPS, 2.5×10^5 popliteal lymph node cells (footpad injections) or splenocytes (intraperitoneal injections) were plated in triplicate in 96-well flat bottomed plates (Costar, Cambridge, Mass.) in 200 μl of RPMI complete medium (GIBCO BRL, Grand Island, N.Y., US) supplemented with 5% fetal bovine serum (FBS), together with different concentrations (0-500 μg/mL of OVA, or OVA peptide (SIINFEKL, SEQ ID NO:1) (New England Peptide Incorporated, Fitchburg, Mass.). Proliferative responses were assessed after 72 hours of culture in a humidified atmosphere of 5% CO2 in air. […]

For assay [3], the system named is OVA-specific CD8+ T cells. In words: Cytokines produced in CD8+ T-cell cultures (ELISA). The class given is in vivo, mice. Conditions: CD8+ OT-1 cells. The procedure:
as §1, §2
We next examined the cytokines produced in CD8+ T-cell cultures by ELISA.

In assay [4] the test system is OVA-specific CD4+ T cells. In words: Clonal expansion of OVA-specific CD4+ T cells in vivo (OT-2 adoptive transfer, flow cytometry). The arrangement: species or system mice. Conditions: OVA with or without LPS adjuvant; footpad or intraperitoneal; Day 4. The source says:
OT-2 TCR transgenic mice (strain 426-6), generated by Dr. W. Heath (Walter & Eliza Hall Institute, Melbourne, Australia) and Dr. F. Carbone (Monash University, Melbourne, Australia) were obtained from Dr. J. Kapp (Emory University, Atlanta). OT-1 TCR transgenic mice were purchased from Jackson Laboratory (Bar Harbor, Me.). C57BL/6 mice, B6.PL.THY1^a (B6.PL) mice, and C3H/HeJ mice were purchased from Jackson Laboratory (Bar Harbor, Me.). C3H/HeN mice were purchased from Harlan Sprague Dawley (Indianapolis, Ind.). All mice were kept in microisolator cages in a specific-pathogen free facility. For adoptive transfers, age matched, male C57BL/6 or B6.PL.THY1^a recipients were given 2.5×10^6 of either OT-2 cells or OT-1 TCR transgenic T cells intravenously.
Reconstituted mice (3-5 per group) were injected either intraperitoneally, or in the footpad, with either 2 mg OVA in saline, 2 mg OVA+25 μg E. coli LPS, or 2 mg OVA+25 μg P. gingivalis LPS. Endotoxin activity in saline was measured by LAL QCL-1000 kit, and observed to be below the detection limit. […]
The reconstituted mice were injected with one of the following compositions: soluble endotoxin-free OVA, E. coli LPS alone, P. gingivalis LPS alone, OVA+E. coli LPS, or OVA+P. gingivalis LPS. […] The CD4+ OVA-specific T cell response in either the draining lymph nodes or in the spleen was monitored by flow cytometry (FIG. 2A).
For orientation: A flow cytometer gives signals particle by particle.

B1: OVA: Chicken OVALBUMIN (Sigma) in PBS, depleted of the endotoxin activity; model soluble protein antigen (protein, UniProt P01012 2-386, looked up)
Ovalbumin: GSIGAASMEFCFDVFKELKVHHANENIFYCPIAIMSALAMVYLGAKDSTRTQINKVVRFDKLPGFGDSIEAQCGTSVNVHSSLRDILNQITKPNDVYSFSLASRLYAEERYPILPEYLQCVKELYRGGLEPINFQTAADQARELINSWVESQTNGIIRNVLQPSSVDSQTAMVLVNAIVFKGLWEKAFKDEDTQAMPFRVTEQESKPVQMMYQIGLFRVASMASEKMKILELPFASGTMSMLVLLPDEVSGLEQLESIINFEKLTEWTSSNVMEERKIKVYLPRMKMEEKYNLTSVLMAMGITDVFSSSANLSGISSAESLKISQAVHAAHAEINEAGREVVGSAEAGVDAASVSEEFRADHPFLFCIKHIATNAVLFFGRCVSP
For the molecule B1, in assay [1], the IFNγ production entry was “little, if any”; the IL-2 production result is given as “little, if any”; the IL-4 production result was “little, if any”; the IL-5 production entry was “little, if any”. For the same molecule, the IL-10 production result in assay [1] is given as “little, if any”. Moreover, the IL-13 production result in assay [2] was “little, if any”. Moreover, in assay [3], the IFNγ production result is “did not secrete significant levels”, the IL-2 production entry is given as “did not secrete significant levels”, the IL-5 production entry is “did not secrete significant levels” and the IL-10 production result was “did not secrete significant levels”. For the same molecule, the “clonal expansion of OVA-specific CD4+ T cells” value in assay [4] is given as “significant clonal expansion”.
